Patent publication US8216580B2, “Sulfatases and methods of use thereof” (The Regents of the University of California, priority 2000, dated 2012)

Test: Arylsulfatase activity assay with 4-MUS substrate
Assay type: biochemical
Method: The 100-fold concentrated conditioned medium (CM) derived from each transfection of CHO cells as described above was dialyzed into 50 mM HEPES, pH 8.0. The His-tagged fusion proteins were bound to a Ni-NTA resin (QIAGEN) by rotation at 4° C. over night, then washed with 50 mM HEPES (pH 8.0), 3 times. 250 mM imidazole in 50 mM HEPES, pH 8.0 was used to elute the His-tagged fusion proteins from Ni-NTA. The resins with boud material or the eluates were mixed with 10 mM 4-methylumbelliferyl-sulfate (4-MUS; a substrate for sulfatases), and 10 mM lead acetate, in a total volume of 100 μl. The reaction mixtures were incubated at 37° C. for various periods of time. Reactions were terminated by the addition of 100 μl of 0.5 M Na2CO3/NaHCO3, pH 10.7 to 20 μl of the reaction mixture. The fluorescence of 4-methylumbelliferone was measured on a Multi-Well Plate Reader CytoFluorII (PerSeptive Biosystems). The fluorescence was determined at an excitation wavelength of 360 nm and emission wavelength of 460 nm. A substrate dose response curve was performed over the concentration range of 1 to 10 mM 4-MUS.
The synthetic fluorogenic compound 4-methylumbelliferyl sulfate (4-MUS) serves as a substrate for most sulfatases, both in the lysosomal and non-lysosomal classes. CHO cells were transfected with a cDNA for HSulf-1 or HSulf-2 or a vector control. Conditioned medium was collected and incubated with nickel resin (Ni-NTA) to bind the His-tagged recombinant proteins. The bead-bound material was assayed for activity on 4-MUS. For both enzymes, hydrolysis depended on time of reaction (FIG. 15A), concentration of substrate (FIG. 15B), and amount of CM (FIG. 15C). From the substrate dose-response curves of FIG. 15B and based on estimates of Sulf protein levels in CM, we approximated Vmax for the two Sulfs to be in the range of 1000-2000 nmol per min per mg of Sulf protein. Human glucosamine-6-sulfatase has a considerably lower Vmax against 4-MUS ([…]) whereas the Vmax of human N-acetylgalactosamine-4-sulfatase (arylsulfatase B) is much higher (48000).
HSulf-1, HSulf-2 or their mutated forms (HSulf-1 ΔCC and HSulf-2 ΔCC) was purified from the conditioned medium of transfected CHO cells by binding to Ni-NTA beads. A) The bead-bound material was tested for arylsulfatase activity as a function of time against 10 mM 4-MUS substrate at pH 8. The “no-enzyme” control was based on testing conditioned medium from vector-control transfected CHO cells. No activity was detected in the absence of added substrate (not shown). […] The activity of each Sulf was determined relative to that of beads exposed to an equivalent volume of vector-control conditioned medium. The activity of HG6S was determined (24 hr incubation) relative to that of the buffer. […]

HSulf-2: Human SULF2, an 870 amino acid sulfatase protein, SEQ ID NO:06; expressed with C-terminal Myc-His tag
sulfatase activity (His-tagged fusion proteins from CHO conditioned medium, 10 mM 4-MUS, 37° C.): Time-dependent sulfatase activity was detected

HSulf-2 ΔCC: catalytically inactive HSulf-2, cysteines 88 and 89 mutated to alanines (CC88, 89AA)
arylsulfatase activity of cysteine-to-alanine mutants (4-MUS, pH 8, 2 hr, mutant protein levels in CM equivalent to wild-type): Lack of the activity
